Test results from the supplement of paper PMC10567573.

B1: PPFIA4 (parent)
chain: VMTLPSDLRKHRRKLLSPVSREEN

Variants of: B1
Assay: protein stability index of a GFP-peptide fusion (GPS, HEK-293T) (PSI 1-6); higher = more stable
Conditions: c terminus: a fixed tail appended
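Note: lentivirally expressed fusions sorted by FACS into six bins by GFP to DsRed ratio, PSI derived from sequencing read proportions per bin multiplied by bin number.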

| Variant | protein stability index |
| --- | --- |
| VMTLPSDLRKHRRKGLSPVSREEN | 4.39 |
| VMTLPSDLRKHRRKNLSPVSREEN | 4.38 |
| VMTLPSDLRKHRRKSLSPVSREEN | 4.94 |
| VMTLPSDLRKHRRKKLSPVSREEN | 3.94 |
| VMTLPSDLRKHRRKPLSPVSREEN | 4.11 |
| VMTLPSDLRKHRRKQLSPVSREEN | 3.83 |
| VMTLPSDLRKHRRKALSPVSREEN | 4.08 |
| VMTLPSDLRKHRRKWLSPVSREEN | 3.5 |
| VMTLPSDLRKHRRKMLSPVSREEN | 4.08 |
| VMTLPSDLRKHRRKYLSPVSREEN | 4.06 |
| VMTLPSDLRKHRRKVLSPVSREEN | 3.81 |
| VMTLPSDLRKHRRKDLSPVSREEN | 4.63 |
| VMTLPSDLRKHRRKELSPVSREEN | 4.22 |
| VMTLPSDLRKHRRKRLSPVSREEN | 3.92 |
| VMTLPSDLRKHRRKFLSPVSREEN | 4.27 |
| VMTLPSDLRKHRRKCLSPVSREEN | 3.55 |
| VMTLPSDLRKHRRKTLSPVSREEN | 3.9 |
| VMTLPSDLRKHRRKILSPVSREEN | 3.9 |
| VMTLPSDLRKHRRKHLSPVSREEN | 4.02 |
| VMTLPSDLRKHRRKLLSEVSREEN | 4.62 |
| VMTLPSDLRKHRRKLLSKVSREEN | 4.16 |
| VMTLPSDLRKHRRKLLSAVSREEN | 4.42 |
| VMTLPSDLRKHRRKLLSRVSREEN | 3.08 |
| VMTLPSDLRKHRRKLLSHVSREEN | 3.52 |

| Variant | protein stability index |
| --- | --- |
| VMTLPSDLRKHRRKLLSGVSREEN | 4.12 |
| VMTLPSDLRKHRRKLLSDVSREEN | 4.7 |
| VMTLPSDLRKHRRKLLSLVSREEN | 3.44 |
| VMTLPSDLRKHRRKLLSNVSREEN | 3.72 |
| VMTLPSDLRKHRRKLLSTVSREEN | 4.31 |
| VMTLPSDLRKHRRKLLSYVSREEN | 3.42 |
| VMTLPSDLRKHRRKLLSQVSREEN | 2.92 |
| VMTLPSDLRKHRRKLLSWVSREEN | 2.47 |
| VMTLPSDLRKHRRKLLSCVSREEN | 3.51 |
| VMTLPSDLRKHRRKLLSFVSREEN | 2.83 |
| VMTLPSDLRKHRRKLLSMVSREEN | 3.83 |
| VMTLPSDLRKHRRKLLSVVSREEN | 4.09 |
| VMTLPSDLRKHRRKLLSIVSREEN | 3.33 |
| VMTLPSDLRKHRRKLLSSVSREEN | 4.07 |
| VMTLPSDLRKHGRKLLSPVSREEN | 3.86 |
| VMTLPSDLRKHFRKLLSPVSREEN | 3.36 |
| VMTLPSDLRKHVRKLLSPVSREEN | 3.41 |
| VMTLPSDLRKHYRKLLSPVSREEN | 3.35 |
| VMTLPSDLRKHNRKLLSPVSREEN | 4.14 |
| VMTLPSDLRKHDRKLLSPVSREEN | 4.68 |
| VMTLPSDLRKHLRKLLSPVSREEN | 2.95 |
| VMTLPSDLRKHERKLLSPVSREEN | 4.58 |
| VMTLPSDLRKHCRKLLSPVSREEN | 3.34 |
| VMTLPSDLRKHWRKLLSPVSREEN | 2.73 |

| Variant | protein stability index |
| --- | --- |
| VMTLPSDLRKHMRKLLSPVSREEN | 3.47 |
| VMTLPSDLRKHHRKLLSPVSREEN | 3.92 |
| VMTLPSDLRKHSRKLLSPVSREEN | 4.12 |
| VMTLPSDLRKHPRKLLSPVSREEN | 4.34 |
| VMTLPSDLRKHKRKLLSPVSREEN | 3.81 |
| VMTLPSDLRKHTRKLLSPVSREEN | 4.21 |
| VMTLPSDLRKHQRKLLSPVSREEN | 4.29 |
| VMTLPSDLRKHIRKLLSPVSREEN | 3.51 |
| VMTLPSDLRKHARKLLSPVSREEN | 3.66 |
| VMTLPSDLRKHRRKLLEPVSREEN | 3.86 |
| VMTLPSDLRKHRRKLLAPVSREEN | 4.24 |
| VMTLPSDLRKHRRKLLIPVSREEN | 3.45 |
| VMTLPSDLRKHRRKLLGPVSREEN | 3.9 |
| VMTLPSDLRKHRRKLLCPVSREEN | 3.65 |
| VMTLPSDLRKHRRKLLRPVSREEN | 3.77 |
| VMTLPSDLRKHRRKLLHPVSREEN | 3.93 |
| VMTLPSDLRKHRRKLLNPVSREEN | 3.88 |
| VMTLPSDLRKHRRKLLKPVSREEN | 3.66 |
| VMTLPSDLRKHRRKLLPPVSREEN | 4.17 |
| VMTLPSDLRKHRRKLLFPVSREEN | 4.01 |
| VMTLPSDLRKHRRKLLDPVSREEN | 4.29 |
| VMTLPSDLRKHRRKLLLPVSREEN | 3.73 |
| VMTLPSDLRKHRRKLLTPVSREEN | 4.23 |
| VMTLPSDLRKHRRKLLQPVSREEN | 4.08 |

| Variant | protein stability index |
| --- | --- |
| VMTLPSDLRKHRRKLLYPVSREEN | 4.07 |
| VMTLPSDLRKHRRKLLMPVSREEN | 3.48 |
| VMTLPSDLRKHRRKLLWPVSREEN | 2.9 |
| VMTLPSDLRKHRRKLLVPVSREEN | 3.53 |
| VMTLPSDLRKPRRKLLSPVSREEN | 4.4 |
| VMTLPSDLRKIRRKLLSPVSREEN | 3.12 |
| VMTLPSDLRKSRRKLLSPVSREEN | 3.75 |
| VMTLPSDLRKDRRKLLSPVSREEN | 4.37 |
| VMTLPSDLRKRRRKLLSPVSREEN | 3.99 |
| VMTLPSDLRKQRRKLLSPVSREEN | 2.93 |
| VMTLPSDLRKCRRKLLSPVSREEN | 3.69 |
| VMTLPSDLRKLRRKLLSPVSREEN | 3.14 |
| VMTLPSDLRKNRRKLLSPVSREEN | 4.02 |
| VMTLPSDLRKVRRKLLSPVSREEN | 3.35 |
| VMTLPSDLRKGRRKLLSPVSREEN | 3.79 |
| VMTLPSDLRKYRRKLLSPVSREEN | 3.35 |
| VMTLPSDLRKARRKLLSPVSREEN | 3.42 |
| VMTLPSDLRKWRRKLLSPVSREEN | 3.24 |
| VMTLPSDLRKTRRKLLSPVSREEN | 3.79 |
| VMTLPSDLRKMRRKLLSPVSREEN | 3.49 |
| VMTLPSDLRKERRKLLSPVSREEN | 4.37 |
| VMTLPSDLRKKRRKLLSPVSREEN | 3.44 |
